Numbering of substitutions follows the chain as printed.
B1: M23 (antibody, V domains shown)
VH: QVQLVQSGAEVKKPGASVKVSCKASGYTFITYWIEWVRQAPGQRLEWMGDILPGSGSTNYNENFKGRVTITRDTSASTAYMELSSLRSEDTAVYYCARSGYYGNSGFAYWGQGTLVTVSS
VL: DIVMTQSPDSLAVSLGERATINCKSSQSLLSSGNQKNYLTWYQQKPGQPPKLLIYWASTRESGVPDRFSGSGSGTDFTLTISSLQAEDVAVYYCQNDYTYPLTFGQGTKLEIK
notes: complete MAb; FR4 is its own entry; also called H17/L2
B2: M44 (antibody, V domains shown)
VH: B1 VH with R44G, I70M, R72T, A76T, S84R, E89D
VL: B1 VL
notes: complete MAb; FR4 is its own entry; also called H20/L2
B3: M65 (antibody, V domains shown)
VH: B1 VH with A16S, R44G, N61A, E62Q, N63K, K65Q, R72A, T74E, A76T
VL: B1 VL
notes: complete MAb; FR4 is its own entry; also called H23/L2
B4: M63 (antibody, V domains shown)
VH: EVQLVQSGAEVKKPGESLRISCKGSGYTFITYWIEWVRQMPGKGLEWMGDILPGSGSTNYSPSFQGHVTISADKSISTAYLQWSSLKASDTAMYYCARSGYYGNSGFAYWGQGTLVTVSS
VL: DIVMTQTPLSSPVTLGQPASISCKSSQSLLSSGNQKNYLTWLQQRPGQPPRLLIYWASTRESGVPDRFSGSGAGTDFTLKISRVEAEDVGVYYCQNDYTYPLTFGQGTKLEIK
notes: complete MAb; FR4 is its own entry; also called H22/L7
B5: M38 (antibody, V domains shown)
VH: B1 VH with A16S, R44G, R72A, T74E, A76T
VL: B4 VL with S11L, L15P, Q17E, L42Y, Q43L, R45K, P49S, R51Q, A73S
notes: complete MAb; FR4 is its own entry; also called H19/L3
B6: M18 (antibody, V domains shown)
VH: B1 VH with R44G, I70M, A76T, A79V
VL: B4 VL with T7S, S11L, L15P, Q17E, L42Y, Q43L, R45K, P49S, R51Q, A73S
notes: complete MAb; FR4 is its own entry; also called H16/L4
B7: M17 (antibody, V domains shown)
VH: B1 VH with R44G, I70M, A76T, A79V
VL: B4 VL with S11L, L15P, Q17E, L42Y, Q43L, R45K, P49S, R51Q, A73S
notes: complete MAb; FR4 is its own entry; also called H16/L3
B8: M1641 (antibody, V domains shown)
VH: B4 VH
VL: DIVMTQTPLSLPVTPGEPASISCKSSQSLLFSANQRNYLTWYLQKPGQSPQLLIYWASTRDSGVPDRFSGSGSGTDFTLKISRVEAEDVGVYYCQNDDTYPLTFGQGTKLEIK
notes: complete MAb; FR4 is its own entry; also called H22/L335
B9: M1604 (antibody, V domains shown)
VH: B4 VH with I30A, T31P, S55T, S57Y, N59W
VL: B8 VL with F31S, A33G, R36K, D61E, D98Y
notes: complete MAb; FR4 is its own entry; also called H138/L3
B10: M1613 (antibody, V domains shown)
VH: B4 VH with I30S, T31S, Y32H, S57F, N59H, Q82K
VL: B8 VL with F31S, A33G, R36K, D61E, D98Y
notes: complete MAb; FR4 is its own entry; also called H136/L3
B11: M1645 (antibody, V domains shown)
VH: B4 VH
VL: B8 VL with F31Y, S32T, A33S, R36K, D61E, T99Y, Y100W
notes: complete MAb; FR4 is its own entry; also called H22/L283
B12: M1599 (antibody, V domains shown)
VH: B4 VH with I30G, T31P, S55T, S57Y, N59L
VL: B8 VL with F31S, A33G, R36K, D61E, D98Y
notes: complete MAb; FR4 is its own entry; also called H130/L3
B13: M1602 (antibody, V domains shown)
VH: B4 VH with I30D, T31A, Y32H, S57F, N59D
VL: B8 VL with F31S, A33G, R36K, D61E, D98Y
notes: complete MAb; FR4 is its own entry; also called H106/L3
B14: M1643 (antibody, V domains shown)
VH: B4 VH
VL: B8 VL with F31Y, S32V, A33Y, N34G, R36K, D61E, D98F, T99S, Y100W
notes: complete MAb; FR4 is its own entry; also called H22/L162
B15: M1606 (antibody, V domains shown)
VH: B4 VH with T31P, Y32H, S57W
VL: B8 VL with F31S, A33G, R36K, D61E, D98Y
notes: complete MAb; FR4 is its own entry; also called H181/L3
B16: M1605 (antibody, V domains shown)
VH: B4 VH with I30G, S55T, S57H, N59T
VL: B8 VL with F31S, A33G, R36K, D61E, D98Y
notes: complete MAb; FR4 is its own entry; also called H168/L3
B17: M1610 (antibody, V domains shown)
VH: B4 VH with I30A, T31P, L52I, S55T, S57Y, N59T
VL: B8 VL with F31S, A33G, R36K, D61E, D98Y
notes: complete MAb; FR4 is its own entry; also called H115/L3
B18: M1642 (antibody, V domains shown)
VH: B4 VH
VL: B8 VL with F31T, A33Y, D61E, D98L
notes: complete MAb; FR4 is its own entry; also called H22/L369
B19: M1601 (antibody, V domains shown)
VH: B4 VH with I30G, T31P, S55T, S57Y, N59V
VL: B8 VL with F31S, A33G, R36K, D61E, D98Y
notes: complete MAb; FR4 is its own entry; also called H105/L3
B20: M1648 (antibody, V domains shown)
VH: B4 VH with I30A, T31P, S55T, S57F, N59T
VL: B8 VL with F31P, A33W, R36S, D61E, D98F
notes: complete MAb; FR4 is its own entry; also called H171/L327
B21: M1644 (antibody, V domains shown)
VH: B4 VH
VL: B8 VL with S32R, A33P, N34T, R36K, D61E, T99S
notes: complete MAb; FR4 is its own entry; also called H22/L225
B22: M1650 (antibody, V domains shown)
VH: B4 VH with I30A, T31P, S55T, S57F, N59T
VL: B8 VL with F31T, A33Y, D61E, D98L
notes: complete MAb; FR4 is its own entry; also called H171/L369
B23: M1638 (antibody, V domains shown)
VH: B4 VH
VL: B8 VL with F31W, S32F, A33V, R36K, W56H, D61E, T99S
notes: complete MAb; FR4 is its own entry; also called H22/L138
B24: M1647 (antibody, V domains shown)
VH: B4 VH with I30A, T31P, S55T, S57F, N59T
VL: B8 VL with F31Y, A33G, D61S, L102M
notes: complete MAb; FR4 is its own entry; also called H171/L320
B25: M1640 (antibody, V domains shown)
VH: B4 VH
VL: B8 VL with F31P, A33W, R36S, D61E, D98F
notes: complete MAb; FR4 is its own entry; also called H22/L327
B26: M1639 (antibody, V domains shown)
VH: B4 VH
VL: B8 VL with F31Y, A33G, D61S, L102M
notes: complete MAb; FR4 is its own entry; also called H22/L320

Biological target: T1, recombinant extracellular domain (ECD) of human TF, amino acid 1-219 of the mature chain, C-terminal His6-tag (human, UniProt P13726 33-251)
T1 construct: expressed in a mammalian system; used for ELISA and Biacore; biotinylated by NHS-ester for the Fab ELISA; also called His6-TF-ECD1-219; HumanTF1-219
Assay: direct ELISA, 50 ng/ml

B1: binds.
B2: binds.
B3: binds.
B4: binds.
B5: binds.
B6: binds.
B7: binds.

Biological target: Innovin, lyophilized recombinant human tissue factor combined with phospholipids (human, UniProt P13726 33-295, limits assumed)
Assay: cell-based or functional assay

First: B8
Second: B9
The “T½ Max (seconds), coagulation of human plasma” value (from here on “T½ Max (seconds), coagulation”) of the first is lower: 162 s for the first, 165 s for the second.

Going from B10 to B11, the “T½ Max (seconds), coagulation” value falls from 165 s to 154 s.

Compared with B12, B13 is higher in “T½ Max (seconds), coagulation” value: 151 s for the first, 163 s for the second.

Compared with B14, B15 is higher in “T½ Max (seconds), coagulation” value: 148 s for the first, 157 s for the second.

First: B16
Second: B17
The “T½ Max (seconds), coagulation” value of the first is lower: 160 s for the first, 164 s for the second.

First: B18
Second: B19
The “T½ Max (seconds), coagulation” value of the first is lower: 166 s for the first, 180 s for the second.

Going from B20 to B21, the “T½ Max (seconds), coagulation” value falls from 161 s to 150 s.

First: B22
Second: B23
The “T½ Max (seconds), coagulation” value of the first is lower: 150 s for the first, 163 s for the second.

First: B24
Second: B25
The “T½ Max (seconds), coagulation” value of the first is lower: 160 s for the first, 168 s for the second.

With B26 the “T½ Max (seconds), coagulation” value was 167 s.

Biological target: T1, recombinant extracellular domain (ECD) …
Assay: Biacore

B8 and B9 are within 1.5-fold of each other in Kd: 0.12 nM for the first, 0.14 nM for the second.

First: B10
Second: B11
The Kd of the first is 12-fold higher: 0.92 nM for the first, 0.08 nM for the second. The second binds more tightly here.

First: B12
Second: B13
The Kd of the first is 1.6-fold lower: 0.39 nM for the first, 0.62 nM for the second.

B14 and B15 are the same in Kd: 0.18 nM for the first, 0.18 nM for the second.

B16 and B17 are within 1.5-fold of each other in Kd: 0.64 nM for the first, 0.54 nM for the second.

First: B18
Second: B19
The Kd of the first is 2.9-fold higher: 0.95 nM for the first, 0.33 nM for the second. The second binds more tightly here.

Going from B20 to B21, the Kd falls from 0.73 nM to 0.12 nM (6.1-fold).

B22 and B23 are within 1.5-fold of each other in Kd: 0.19 nM for the first, 0.2 nM for the second.

First: B24
Second: B25
The Kd of the first is 7.6-fold lower: 0.1 nM for the first, 0.76 nM for the second. The first binds more tightly here.

Binder B26 has a Kd of 0.08 nM.

First: B9
Second: B10
The koff of the first is 3.2-fold lower: 2.2e-05 s⁻¹ for the first, 7e-05 s⁻¹ for the second.

Going from B12 to B13, the koff rises from 5.3e-05 s⁻¹ to 8.2e-05 s⁻¹ (1.5-fold).

First: B15
Second: B16
The koff of the first is 3-fold lower: 2.9e-05 s⁻¹ for the first, 8.6e-05 s⁻¹ for the second.

First: B17
Second: B19
The koff of the first is 2.2-fold higher: 0.0001 s⁻¹ for the first, 4.6e-05 s⁻¹ for the second.

Going from B9 to B10, the kon falls from 152000 M⁻¹ s⁻¹ to 75700 M⁻¹ s⁻¹ (2-fold).

B12 and B13 are within 1.5-fold of each other in kon: 138000 M⁻¹ s⁻¹ for the first, 132000 M⁻¹ s⁻¹ for the second.

B15 and B16 are within 1.5-fold of each other in kon: 166000 M⁻¹ s⁻¹ for the first, 135000 M⁻¹ s⁻¹ for the second.

B17 and B19 are within 1.5-fold of each other in kon: 184000 M⁻¹ s⁻¹ for the first, 137000 M⁻¹ s⁻¹ for the second.
